Assay results as given in paper PMC6459857 (Nature Communications, 2019).

Columns and labels:
Settings in all cases: both partners purified
[1] = target: Cdk2/cyclin A binary complex (human, UniProt P24941 1-298; P20248 173-432); assay: single-molecule fluorescence anisotropy (smFA); BODIPY-labelled single-Cys p27, not phosphorylated, free or in complex with Cdk2/cyclin A, diluted to pM; 20 mM HEPES pH 7.5, 300 mM NaCl, 40 µM TROLOX; average anisotropy of free and complexed p27 compared
[2] = target: T1, Cdk2/cyclin A binary complex (human, UniProt P24941 1-298; P20248 173-432); assay: single-molecule fluorescence anisotropy (smFA); BODIPY-labelled single-cysteine p27 in complex with Cdk2/cyclin A, freely diffusing molecules at pM concentration; 20 mM HEPES pH 7.5, 300 mM NaCl, 40 µM TROLOX
[3] = target: T1, Cdk2/cyclin A binary complex; assay: FRET or BRET; single-molecule FRET (smMFD) within dual-labelled p27 in complex with Cdk2/cyclin A, freely diffusing molecules at pM concentration; 20 mM HEPES pH 7.5, 300 mM NaCl, 40 µM TROLOX
[4] = target: T1, Cdk2/cyclin A binary complex; assay: ITC; 10 µM p27 or p27 Y to E variants injected into 1 µM Cdk2/cyclin A binary complex; 20 mM HEPES pH 7.5, 300 mM NaCl, 2 mM TCEP; experiments from 5 to 25 °C in intervals of 5 °C (temperature of the tabulated values not stated); single-site binding model

Binder	binding result [1]	binding result [3]	further results
p27-C29 (full-length p27-Y89F with the single native Cys 29, labelled with BODIPY-FL) (natural protein, BODIPY-FL on Cys 29, p27Kip1 (p27), human, residues 1-198 (full length), Y89F; Cys 29 kept, the other three native Cys replaced; also called p27-29C; source: E. coli, purified (Ni-NTA, His-tag removed with thrombin, reverse-phase HPLC over C4); labelled with BODIPY-FL) MSNVRVSNGSPSLERMDARQAEHPKPSACRNLFGPVDHEELTRDLEKHARDMEEASQRKWNFDFQNHKPLEGKYEWQEVEKGSLPEFYFRPPRPPKGASKVPAQESQDVSGSRPAAPLIGAPANSEDTHLVDPKTDPSDSQTGLAEQSAGIRKRPATDDSSTQNKRANRTEENVSDGSPNAGSVEQTPKKPGLRRRQT	binds		
BODIPY-labeled p27-C29 (natural protein, BODIPY-FL on the native cysteine at 29, p27Kip1 (p27), human, p27-Y89F background with the single native Cys 29 kept; also called p27–29C; source: E. coli, purified; labelled with BODIPY-FL) MSNVRVSNGSPSLERMDARQAEHPKPSACRNLFGPVDHEELTRDLEKHARDMEEASQRKWNFDFQNHKPLEGKYEWQEVEKGSLPEFYFRPPRPPKGASKVPAQESQDVSGSRPAAPLIGAPANSEDTHLVDPKTDPSDSQTGLAEQSAGIRKRPATDDSSTQNKRANRTEENVSDGSPNAGSVEQTPKKPGLRRRQT			binding result [2]: binds
p27-C54 (Cys-less full-length p27-Y89F with E54C, labelled with BODIPY-FL) (natural protein, BODIPY-FL on Cys 54, p27Kip1 (p27), human, residues 1-198 (full length), Y89F, Cys-less background, Glu 54 to Cys; also called p27-54C; source: E. coli, purified (Ni-NTA, His-tag removed with thrombin, reverse-phase HPLC over C4); labelled with BODIPY-FL) MSNVRVSNGSPSLERMDARQAEHPKPSAARNLFGPVDHEELTRDLEKHARDMECASQRKWNFDFQNHKPLEGKYEWQEVEKGSLPEFYFRPPRPPKGASKVPAQESQDVSGSRPAAPLIGAPANSEDTHLVDPKTDPSDSQTGLAEQSAGIRKRPATDDSSTQNKRANRTEENVSDGSPNAGSVEQTPKKPGLRRRQT	binds		
BODIPY-labeled p27-C93 (natural protein, BODIPY-FL on the cysteine at 93, p27Kip1 (p27), human, in the Cys-less p27-Y89F background; source: E. coli, purified; labelled with BODIPY-FL) MSNVRVSNGSPSLERMDARQAEHPKPSAARNLFGPVDHEELTRDLEKHARDMEEASQRKWNFDFQNHKPLEGKYEWQEVEKGSLPEFYFRPPCPPKGASKVPAQESQDVSGSRPAAPLIGAPANSEDTHLVDPKTDPSDSQTGLAEQSAGIRKRPATDDSSTQNKRANRTEENVSDGSPNAGSVEQTPKKPGLRRRQT			binding result [2]: binds
p27-C93 (Cys-less full-length p27-Y89F with R93C, labelled with BODIPY-FL) (natural protein, BODIPY-FL on Cys 93, p27Kip1 (p27), human, residues 1-198 (full length), Y89F, Cys-less background, Arg 93 to Cys; also called p27-93C; source: E. coli, purified (Ni-NTA, His-tag removed with thrombin, reverse-phase HPLC over C4); labelled with BODIPY-FL) MSNVRVSNGSPSLERMDARQAEHPKPSAARNLFGPVDHEELTRDLEKHARDMEEASQRKWNFDFQNHKPLEGKYEWQEVEKGSLPEFYFRPPCPPKGASKVPAQESQDVSGSRPAAPLIGAPANSEDTHLVDPKTDPSDSQTGLAEQSAGIRKRPATDDSSTQNKRANRTEENVSDGSPNAGSVEQTPKKPGLRRRQT	binds		
p27-C75-110 (Alexa Fluor 488 / Alexa Fluor 647 labelled) (natural protein, Alexa Fluor 488 maleimide and Alexa Fluor 647 maleimide on the cysteines at 75 and 110, p27Kip1 (p27), human, in the Cys-less p27-Y89F background; source: E. coli, purified; dye-labelled, dual-labelled species separated by ion-exchange chromatography) MSNVRVSNGSPSLERMDARQAEHPKPSAARNLFGPVDHEELTRDLEKHARDMEEASQRKWNFDFQNHKPLEGKYCWQEVEKGSLPEFYFRPPRPPKGASKVPAQESQDVCGSRPAAPLIGAPANSEDTHLVDPKTDPSDSQTGLAEQSAGIRKRPATDDSSTQNKRANRTEENVSDGSPNAGSVEQTPKKPGLRRRQT		binds	
Y74E/Y88E-p27 (natural protein, p27Kip1 (p27), human, residues 1–198 (full length); also called Y88E/Y74E; dual Y phosphomimetic p27; source: E. coli, purified (Ni2+-NTA, His-tag removed with thrombin, reverse-phase HPLC over C4 resin)) MSNVRVSNGSPSLERMDARQAEHPKPSACRNLFGPVDHEELTRDLEKHCRDMEEASQRKWNFDFQNHKPLEGKEEWQEVEKGSLPEFEFRPPRPPKGACKVPAQESQDVSGSRPAAPLIGAPANSEDTHLVDPKTDPSDSQTGLAEQCAGIRKRPATDDSSTQNKRANRTEENVSDGSPNAGSVEQTPKKPGLRRRQT			Kd [4]: 14 nM; dH [4]: -34.4 kcal/mol
pY88-p27-C54-93 (Alexa Fluor 488 / Alexa Fluor 647 labelled) (natural protein, phosphotyrosine at 88; Alexa Fluor 488 maleimide and Alexa Fluor 647 maleimide on the cysteines at 54 and 93, p27Kip1 (p27), human, in the Cys-less p27-Y89F background; source: E. coli, purified; dye-labelled; phosphorylated with ABL-KD) MSNVRVSNGSPSLERMDARQAEHPKPSAARNLFGPVDHEELTRDLEKHARDMECASQRKWNFDFQNHKPLEGKYEWQEVEKGSLPEFYFRPPCPPKGASKVPAQESQDVSGSRPAAPLIGAPANSEDTHLVDPKTDPSDSQTGLAEQSAGIRKRPATDDSSTQNKRANRTEENVSDGSPNAGSVEQTPKKPGLRRRQT		binds	
BODIPY-labeled pY88-p27-C93 (natural protein, phosphotyrosine at 88; BODIPY-FL on the cysteine at 93, p27Kip1 (p27), human, in the Cys-less p27-Y89F background; source: E. coli, purified; labelled with BODIPY-FL; phosphorylated with ABL-KD) MSNVRVSNGSPSLERMDARQAEHPKPSAARNLFGPVDHEELTRDLEKHARDMEEASQRKWNFDFQNHKPLEGKYEWQEVEKGSLPEFYFRPPCPPKGASKVPAQESQDVSGSRPAAPLIGAPANSEDTHLVDPKTDPSDSQTGLAEQSAGIRKRPATDDSSTQNKRANRTEENVSDGSPNAGSVEQTPKKPGLRRRQT			binding result [2]: binds

More lines, main results first:

binding result [1]	binding result [3]	Binder	further results
binds		p27-C40 (Cys-less full-length p27-Y89F with E40C, labelled with BODIPY-FL) (natural protein, BODIPY-FL on Cys 40, p27Kip1 (p27), human, residues 1-198 (full length), Y89F, Cys-less background, Glu 40 to Cys; also called p27-40C; source: E. coli, purified (Ni-NTA, His-tag removed with thrombin, reverse-phase HPLC over C4); labelled with BODIPY-FL) MSNVRVSNGSPSLERMDARQAEHPKPSAARNLFGPVDHECLTRDLEKHARDMEEASQRKWNFDFQNHKPLEGKYEWQEVEKGSLPEFYFRPPRPPKGASKVPAQESQDVSGSRPAAPLIGAPANSEDTHLVDPKTDPSDSQTGLAEQSAGIRKRPATDDSSTQNKRANRTEENVSDGSPNAGSVEQTPKKPGLRRRQT	
binds		p27-C75 (Cys-less full-length p27-Y89F with E75C, labelled with BODIPY-FL) (natural protein, BODIPY-FL on Cys 75, p27Kip1 (p27), human, residues 1-198 (full length), Y89F, Cys-less background, Glu 75 to Cys; also called p27-75C; source: E. coli, purified (Ni-NTA, His-tag removed with thrombin, reverse-phase HPLC over C4); labelled with BODIPY-FL) MSNVRVSNGSPSLERMDARQAEHPKPSAARNLFGPVDHEELTRDLEKHARDMEEASQRKWNFDFQNHKPLEGKYCWQEVEKGSLPEFYFRPPRPPKGASKVPAQESQDVSGSRPAAPLIGAPANSEDTHLVDPKTDPSDSQTGLAEQSAGIRKRPATDDSSTQNKRANRTEENVSDGSPNAGSVEQTPKKPGLRRRQT	
	binds	p27-C54-93 (Alexa Fluor 488 / Alexa Fluor 647 labelled) (natural protein, Alexa Fluor 488 maleimide and Alexa Fluor 647 maleimide on the cysteines at 54 and 93, p27Kip1 (p27), human, in the Cys-less p27-Y89F background; also called p27-C54-C93; source: E. coli, purified; dye-labelled, dual-labelled species separated by ion-exchange chromatography) MSNVRVSNGSPSLERMDARQAEHPKPSAARNLFGPVDHEELTRDLEKHARDMECASQRKWNFDFQNHKPLEGKYEWQEVEKGSLPEFYFRPPCPPKGASKVPAQESQDVSGSRPAAPLIGAPANSEDTHLVDPKTDPSDSQTGLAEQSAGIRKRPATDDSSTQNKRANRTEENVSDGSPNAGSVEQTPKKPGLRRRQT	
	binds	p27-C29-54 (Alexa Fluor 488 / Alexa Fluor 647 labelled) (natural protein, Alexa Fluor 488 maleimide and Alexa Fluor 647 maleimide on the cysteines at 29 and 54, p27Kip1 (p27), human, p27-Y89F background with the native Cys 29 kept; source: E. coli, purified; dye-labelled, dual-labelled species separated by ion-exchange chromatography) MSNVRVSNGSPSLERMDARQAEHPKPSACRNLFGPVDHEELTRDLEKHARDMECASQRKWNFDFQNHKPLEGKYEWQEVEKGSLPEFYFRPPRPPKGASKVPAQESQDVSGSRPAAPLIGAPANSEDTHLVDPKTDPSDSQTGLAEQSAGIRKRPATDDSSTQNKRANRTEENVSDGSPNAGSVEQTPKKPGLRRRQT	
